This is an account of results in patent US20220298215A1.

The target in the experiment is glucagon-like peptide 1 (GLP-1) receptor. Kind of experiment: cell-based or functional assay.
glucagon-like peptide 1 (GLP-1) receptor, sequence (P43220 24-463): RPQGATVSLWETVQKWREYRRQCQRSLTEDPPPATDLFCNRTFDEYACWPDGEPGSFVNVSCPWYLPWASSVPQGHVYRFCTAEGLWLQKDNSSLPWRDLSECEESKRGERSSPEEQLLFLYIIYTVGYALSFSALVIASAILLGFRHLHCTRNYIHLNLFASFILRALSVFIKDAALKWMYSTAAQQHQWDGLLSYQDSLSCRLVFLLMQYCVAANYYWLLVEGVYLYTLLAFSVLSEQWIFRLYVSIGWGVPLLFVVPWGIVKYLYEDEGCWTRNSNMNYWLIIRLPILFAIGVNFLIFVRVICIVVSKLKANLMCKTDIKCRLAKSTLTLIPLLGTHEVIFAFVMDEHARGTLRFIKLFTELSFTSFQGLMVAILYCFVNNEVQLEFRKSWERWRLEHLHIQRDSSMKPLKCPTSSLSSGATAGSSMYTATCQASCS

Dulaglutide (Fc fusion) had an EC50, CRE-luciferase reporter in HEK293-GLP1R-CRE-Luc cells of 0.0237 nM.
